Drawing on the RNAGym collection of RNA variant scans (doi:10.7554/elife.90254), this text covers self-cleavage for 56 variants.

To fix the notation:
B1: LINE1-mini (parent)
chain: GGCAGAGCUCAACACAGCGUGGCAAAGUGGCUGUGGCUAGACUGCC

In the series the parent is B1. In words: self-cleavage, relative activity (ratio to wild type); higher = more cleavage; in vitro, sequencing; the parent is a self-cleaving ribozyme.
On to UGCAGAGCUCAACACAGCGUGCCAAAGUGGCUGUGGCUAGACUGCC [G1U G22C], for which the self-cleavage amounted to 0.23.

For the variant UGCAGAGCUCAACACAGCGUGACAAAGUGGCUGUGGCUAGACUGCC [G1U G22A], the self-cleavage came out at 0.25.

UGCAGAGCUCAACACAGCGUGUCAAAGUGGCUGUGGCUAGACUGCC [G1U G22U]: the self-cleavage was found to be 0.43.

Regarding UGCAGAGCUCAACACAGCGUGGCAAAGUGGCUGUGGCUAAACUGCC [G1U G40A], the self-cleavage was found to be 0.04.

With UGCAGAGCUCAACACAGCGUGGCAAAGUGGCUGUGGCUACACUGCC [G1U G40C], the self-cleavage was found to be 0.04.

As for UGCAGAGCUCAACACAGCGUGGCAAAGUGGCUGUGGCUAUACUGCC [G1U G40U], the self-cleavage came out at 0.08.

In the case of GACAGAGCUCAACACAGCGUGGCCAAGUGGCUGUGGCUAGACUGCC [G2A A24C], the self-cleavage turned out to be 1.16.

For GACAGAGCUCAACACAGCGUGGCUAAGUGGCUGUGGCUAGACUGCC [G2A A24U], the self-cleavage turned out to be 0.86.

Take GACAGAGCUCAACACAGCGUGGCGAAGUGGCUGUGGCUAGACUGCC [G2A A24G]: the self-cleavage worked out at 1.04.

UGCAGAGCUCAACACAGCGUGGCAAAGUCGCUGUGGCUAGACUGCC [G1U G29C]: the self-cleavage worked out at 0.2.

Turning to UGCAGAGCUCAACACAGCGUGGCAAAGUUGCUGUGGCUAGACUGCC [G1U G29U], the self-cleavage was 0.38.

On to UGCAGAGCUCAACACAGCGUGGCAAAGUAGCUGUGGCUAGACUGCC [G1U G29A], for which the self-cleavage came out at 0.44.

Regarding GACAGAGCUCAACACAGCGUGGCAAGGUGGCUGUGGCUAGACUGCC [G2A A26G], the self-cleavage came out at 0.6.

Take GACAGAGCUCAACACAGCGUGGCAAUGUGGCUGUGGCUAGACUGCC [G2A A26U]: the self-cleavage was found to be 1.83.

As for GACAGAGCUCAACACAGCGUGGCAACGUGGCUGUGGCUAGACUGCC [G2A A26C], the self-cleavage is 0.9.

In the case of GACAGAGCUCUACACAGCGUGGCAAAGUGGCUGUGGCUAGACUGCC [G2A A11U], the self-cleavage is 0.12.

Turning to GACAGAGCUCCACACAGCGUGGCAAAGUGGCUGUGGCUAGACUGCC [G2A A11C], the self-cleavage was 0.05.

GACAGAGCUCGACACAGCGUGGCAAAGUGGCUGUGGCUAGACUGCC [G2A A11G]: the self-cleavage is 0.08.

Consider UGCAGAGCUCAACACAGCGUGGCAAAGUGGCUGUGGCUAGACUUCC [G1U G44U], for which the self-cleavage is 0.15.

In the case of UGCAGAGCUCAACACAGCGUGGCAAAGUGGCUGUGGCUAGACUCCC [G1U G44C], the self-cleavage is 0.14.

On to UGCAGAGCUCAACACAGCGUGGCAAAGUGGCUGUGGCUAGACUACC [G1U G44A], for which the self-cleavage worked out at 0.11.

For the variant UGCAGAGCUCAACACAGCGUAGCAAAGUGGCUGUGGCUAGACUGCC [G1U G21A], the self-cleavage was found to be 0.77.

Regarding UGCAGAGCUCAACACAGCGUCGCAAAGUGGCUGUGGCUAGACUGCC [G1U G21C], the self-cleavage stood at 0.39.

Consider UGCAGAGCUCAACACAGCGUUGCAAAGUGGCUGUGGCUAGACUGCC [G1U G21U], for which the self-cleavage was determined as 0.41.

As to UGCAGAGCACAACACAGCGUGGCAAAGUGGCUGUGGCUAGACUGCC [G1U U9A], the self-cleavage was 0.03.

On to UGCAGAGCCCAACACAGCGUGGCAAAGUGGCUGUGGCUAGACUGCC [G1U U9C], for which the self-cleavage was determined as 0.02.

On to UGCAGAGCGCAACACAGCGUGGCAAAGUGGCUGUGGCUAGACUGCC [G1U U9G], for which the self-cleavage came to 0.03.

Take UGCAGAGCUCAACACAGCGUGGCAAAGUGGCUGUGGCUAGACUGCU [G1U C46U]: the self-cleavage worked out at 0.43.

As to UGCAGAGCUCAACACAGCGUGGCAAAGUGGCUGUGGCUAGACUGCA [G1U C46A], the self-cleavage was 0.53.

UGCAGAGCUCAACACAGCGUGGCAAAGUGGCUGUGGCUAGACUGCG [G1U C46G]: the self-cleavage turned out to be 0.74.

As to UGCAGAGCUCAACACAGCCUGGCAAAGUGGCUGUGGCUAGACUGCC [G1U G19C], the self-cleavage was 0.2.

Consider UGCAGAGCUCAACACAGCAUGGCAAAGUGGCUGUGGCUAGACUGCC [G1U G19A], for which the self-cleavage came to 0.57.

As to UGCAGAGCUCAACACAGCUUGGCAAAGUGGCUGUGGCUAGACUGCC [G1U G19U], the self-cleavage worked out at 0.11.

For UGCACAGCUCAACACAGCGUGGCAAAGUGGCUGUGGCUAGACUGCC [G1U G5C], the self-cleavage was determined as 0.04.

As for UGCAAAGCUCAACACAGCGUGGCAAAGUGGCUGUGGCUAGACUGCC [G1U G5A], the self-cleavage worked out at 0.2.

On to UGCAUAGCUCAACACAGCGUGGCAAAGUGGCUGUGGCUAGACUGCC [G1U G5U], for which the self-cleavage is 0.09.

For the variant UGCAGAGCUCAACACAGCGUGGCAAAGUGGCUGUGACUAGACUGCC [G1U G36A], the self-cleavage was 0.11.

UGCAGAGCUCAACACAGCGUGGCAAAGUGGCUGUGUCUAGACUGCC [G1U G36U]: the self-cleavage came out at 0.11.

Consider UGCAGAGCUCAACACAGCGUGGCAAAGUGGCUGUGCCUAGACUGCC [G1U G36C], for which the self-cleavage came out at 0.04.

In the case of UGCAGAGCUCAACACAGCGCGGCAAAGUGGCUGUGGCUAGACUGCC [G1U U20C], the self-cleavage came out at 0.22.

As for UGCAGAGCUCAACACAGCGGGGCAAAGUGGCUGUGGCUAGACUGCC [G1U U20G], the self-cleavage was determined as 0.16.

With UGCAGAGCUCAACACAGCGAGGCAAAGUGGCUGUGGCUAGACUGCC [G1U U20A], the self-cleavage stood at 0.31.

As for UGCAGAGCUCAACACAGCGUGGCAAAGUGGCUGAGGCUAGACUGCC [G1U U34A], the self-cleavage is 0.05.

Regarding UGCAGAGCUCAACACAGCGUGGCAAAGUGGCUGCGGCUAGACUGCC [G1U U34C], the self-cleavage is 0.06.

As for UGCAGAGCUCAACACAGCGUGGCAAAGUGGCUGGGGCUAGACUGCC [G1U U34G], the self-cleavage amounted to 0.06.

UGCAGAGCUCAACACAGCGUGGCAAAGUGGCUGUGGCAAGACUGCC [G1U U38A]: the self-cleavage was determined as 0.13.

With UGCAGAGCUCAACACAGCGUGGCAAAGUGGCUGUGGCGAGACUGCC [G1U U38G], the self-cleavage turned out to be 0.03.

For the variant UGCAGAGCUCAACACAGCGUGGCAAAGUGGCUGUGGCCAGACUGCC [G1U U38C], the self-cleavage turned out to be 0.2.

Consider GACAGAGCUCAACACAGCGUGGCAAAGUGGCUGUGGCUAGCCUGCC [G2A A41C], for which the self-cleavage came out at 0.08.

GACAGAGCUCAACACAGCGUGGCAAAGUGGCUGUGGCUAGGCUGCC [G2A A41G]: the self-cleavage worked out at 0.4.

With GACAGAGCUCAACACAGCGUGGCAAAGUGGCUGUGGCUAGUCUGCC [G2A A41U], the self-cleavage is 0.66.

UGCAGAGCUCAACACAACGUGGCAAAGUGGCUGUGGCUAGACUGCC [G1U G17A]: the self-cleavage was 0.1.

For UGCAGAGCUCAACACACCGUGGCAAAGUGGCUGUGGCUAGACUGCC [G1U G17C], the self-cleavage worked out at 0.05.

Consider UGCAGAGCUCAACACAUCGUGGCAAAGUGGCUGUGGCUAGACUGCC [G1U G17U], for which the self-cleavage is 0.06.

On to UGCAGAGCUCAACACAGCGUGGCAAACUGGCUGUGGCUAGACUGCC [G1U G27C], for which the self-cleavage was found to be 0.27.

With UGCAGAGCUCAACACAGCGUGGCAAAUUGGCUGUGGCUAGACUGCC [G1U G27U], the self-cleavage amounted to 0.25.
